For assay [1], the target named is T1, recombinant hTREM1-chFc1 (human).
T1 construct: the whole entry is named; Captured on Octet AHC biosensors; also called immobilized TREM1-ECD; immobilized TREM1 protein
In words: bio-layer interferometry blocking assay: hTREM1-chFc1 on AHC biosensors, antibody titrated, then PGLYRP1 (blocked ligand, 971 nM per paragraph 383). Here is the method: (§1) The data was fitted with the sigmoidal (four-parameter) nonlinear regression equation. […] The data is from a single experiment that is representative of three replicates.
(§2) Briefly, recombinant hTREM1-chFc1 was immobilized on Octet AHC biosensors and then blocked with 100 μg/mL hIgG1-Fc. […] The incubation time between mAb and immobilized TREM1-ECD is limited to 300 s, thus limiting the amount of antibody that can bind to the immobilized TREM1, particularly at the sub-saturation concentrations.
(In general: BLI is a label-free optical method that tracks binding on a fibre tip over time.)

Assay [2] deals with T2, human TREM2 expressed on HEK293 cells (human, UniProt Q9NZC2 19-230).
T2 construct: whole, on cells; Named member of the array of more than 6,000 human membrane proteins; also called TREM2 (membrane protein array)
T2 sequence (looked up): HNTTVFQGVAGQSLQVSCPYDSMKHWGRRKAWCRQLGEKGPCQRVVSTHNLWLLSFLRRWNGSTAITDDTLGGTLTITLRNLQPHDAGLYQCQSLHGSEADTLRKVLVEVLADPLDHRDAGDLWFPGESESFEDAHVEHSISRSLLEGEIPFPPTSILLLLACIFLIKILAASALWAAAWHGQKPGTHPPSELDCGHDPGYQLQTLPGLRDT
Description: polyspecificity assay; flow cytometry on transfected HEK293 cells. The text has this: Transient transfection was used to express an array of each of more than 6,000 human membrane proteins including TREM2 and other TREM family members on the surface of HEK293 cells. […] TMEM178A is an intracellular protein that localizes to the endoplasmic reticulum; see e.g., Decker et al., Proc. Natl. Acad. Sci., 112(51):15654-9 (2015).
Background: In flow cytometry, cells or beads pass a laser one at a time.

The target in assay [3] is T3, hFcγRIIIA176V (human, UniProt P08637 17-208).
T3 construct: Bought; also called FcγRIIIA (176V polymorphism); not shown: His tag
In words: SPR (Biacore T200), single-cycle kinetics; replicate 2. The text has this:
(§3) Human Fc receptors, FcγRI, FcγRII (both 167R and 167H polymorphisms), FcγRIIB, FcγRIIIA (both 176F and 176V polymorphisms) and FcγRIIIB were obtained from Sino Biological (Beijing, China). FcγR were captured on a CM5 sensor chip pre-coupled using a His capture kit (Cytiva, Uppsala, Sweden) using standard amine chemistry.
(§4) At the start of each cycle, His-tagged Fcγ receptors diluted in HBS-P+ (Cytiva, Uppsala, Sweden) were loaded to a specific RU level. A five point, three-fold dilution range of test antibody without regeneration between each concentration was used for each receptor tested. Antibodies were passed over the chip in increasing concentrations followed by a single dissociation step. Following dissociation, the chip was regenerated with two injections of glycine (pH 1.5).

Assay [4] concerns the target T4, hFcγRIIA167R (human, UniProt P12318 34-218).
T4 construct: also called FcγRII (167R polymorphism); not shown: His tag
T4 sequence (looked up): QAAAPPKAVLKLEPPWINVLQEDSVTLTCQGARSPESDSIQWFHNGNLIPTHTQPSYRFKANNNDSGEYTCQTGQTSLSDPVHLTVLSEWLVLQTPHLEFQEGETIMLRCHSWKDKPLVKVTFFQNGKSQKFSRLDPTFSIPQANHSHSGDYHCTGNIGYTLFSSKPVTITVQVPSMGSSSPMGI
Described as above.
From the text: as §3, §4

Another assay addresses T5, purified human C1q (human, UniProt P02745 23-245; P02746 28-253; P02747 29-245).
T5 construct: Purified from HyCult Biotech; also called complement protein C1q
Description: ELISA; antibody coated in serial dilutions, human C1q at 5 µg/ml, anti-C1q-HRP. How it is done: Plates were blocked with IX PBS (pH 7.4) with 2% w/v BSA. After blocking, purified human C1q (HyCult Biotech, Wayne, Pennsylvania) at 5 μg/ml was added to the ELISA plates for binding, Plates were washed an anti-C1q-HRP (Abcam, Cambridge, UK) was diluted 1:1000 in blocking buffer and added to the ELISA plates for detection. After washing, TMB microwell peroxidase substrate (Life Technologies) was added for detection. The reaction was stopped with TMB stop solution (VWR, Lutterworth, Leicestershire) after 5 minutes. Absorbance was read at 450 nm using a SpectraMax M3 plate reader (Molecular Devices, Wokingham, UK).
(In general: An ELISA detects its analyte on a solid surface through an enzyme-linked reagent.)

Assay [5] has as its target T6, cynomolgus monkey TREM1 on neutrophils (cynomolgus monkey).
T6 construct: Endogenous receptor on neutrophils of dosed animals (receptor occupancy by flow cytometry); also called free TREM1 receptors on neutrophils (cynomolgus)
T6 chain: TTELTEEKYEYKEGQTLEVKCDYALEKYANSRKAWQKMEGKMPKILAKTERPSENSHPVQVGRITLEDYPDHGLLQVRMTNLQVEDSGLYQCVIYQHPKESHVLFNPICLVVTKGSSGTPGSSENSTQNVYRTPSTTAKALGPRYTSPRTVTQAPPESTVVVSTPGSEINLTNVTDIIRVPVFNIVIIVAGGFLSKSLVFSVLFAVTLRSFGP
Description: flow cytometry of whole blood, free TREM1 on neutrophils (percent of baseline) in cynomolgus monkeys dosed IV once weekly for 14 weeks.

Assay [6] addresses T3, hFcγRIIIA176V. In words: SPR (Biacore T200), single-cycle kinetics; His-tagged FcγR captured, antibody as analyte; replicate 1.
From the text: as §3, §4

Assay [7] has as its target T4, hFcγRIIA167R. Described as above.
From the text: as §3, §4

The target in assay [8] is T3, hFcγRIIIA176V. Description: SPR (Biacore T200), single-cycle kinetics; His-tagged FcγR captured, antibody as analyte; replicate 2.
From the text: as §3, §4

In assay [9] the target is T4, hFcγRIIA167R. Described as above.
From the text: as §3, §4

Assay [10] addresses T1, recombinant hTREM1-chFc1. Description: BLI competition; hTREM1-chFc1 on AHC biosensor, antibody titrated 200 to 0.012 nM for 300 s, then 971 nM PGLYRP1 (competitor: PGLYRP1). How it is done:
as §1, §2

The target of assay [11] is T7, human TREM2-ECD fused to an Fc domain (human, UniProt Q9NZC2 19-174).
T7 construct: extracellular domain; the text tells one result for TREM2-ECD, so they are written as one molecule; also called human TREM2-ECD (BioLegend, 786404 and R&D Systems, 1828-T2-050); not shown: Fc domain
T7 sequence (looked up): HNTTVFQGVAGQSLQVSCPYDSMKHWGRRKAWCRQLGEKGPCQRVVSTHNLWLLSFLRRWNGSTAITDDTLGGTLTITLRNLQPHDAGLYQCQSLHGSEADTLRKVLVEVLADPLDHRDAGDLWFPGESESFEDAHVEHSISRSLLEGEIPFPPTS
In words: bio-layer interferometry, TREM2-ECD-Fc immobilised on the sensor, antibody in solution, maximum response. Here is the method:
In addition to TREM1, the TREM gene family also includes TREM2. […] Without wishing to be bound by any particular theory, TREM1 and TREM2 are thought to play opposing roles in modulating immune responses; see e.g., Sharif and Knapp, Immunobiology, 213(9-10):701-713 (2008). […] Briefly, 10 μg/mL TREM2-ECD fused to an Fc domain was immobilized on a sensor. Sensors were quenched and monitored to establish a baseline. […] The maximum BLI response was measured (FIG. 13).

For assay [12], the target named is T3, hFcγRIIIA176V. Description: SPR (Biacore T200), single-cycle kinetics; replicate 1.
From the text: as §3, §4

Assay [13] addresses T4, hFcγRIIA167R. The description is as above.
From the text: as §3, §4

In assay [14] the target is T8, recombinant monovalent cynomolgus monkey TREM1-ECD (cynomolgus monkey).
T8 construct: whole entry named; also called cyno TREM1-ECD
T8 chain: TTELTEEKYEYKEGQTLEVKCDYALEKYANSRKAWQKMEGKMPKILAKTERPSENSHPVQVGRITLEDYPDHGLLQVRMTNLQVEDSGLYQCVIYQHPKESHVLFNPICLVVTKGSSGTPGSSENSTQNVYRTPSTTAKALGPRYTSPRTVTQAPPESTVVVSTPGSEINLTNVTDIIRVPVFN
Description: BLI; antibody on AHC sensor, monovalent TREM1-ECD in solution. The text has this:
(§5) Sensors were monitored to establish a baseline.
(§6) The coefficient of determination of the 1:1 model fit to the BLI sensorgrams is represented by the R\hat{ }2 value. Data for human and cynomolgus monkey represents averages across three replicates. Data for pig, dog, rabbit, rat, and mouse represents averages across two replicates.

Assay [15] addresses T9, recombinant monovalent pig TREM1-ECD (pig (Sus scrofa), UniProt Q6TYI6 21-210).
T9 construct: whole entry named
T9 sequence: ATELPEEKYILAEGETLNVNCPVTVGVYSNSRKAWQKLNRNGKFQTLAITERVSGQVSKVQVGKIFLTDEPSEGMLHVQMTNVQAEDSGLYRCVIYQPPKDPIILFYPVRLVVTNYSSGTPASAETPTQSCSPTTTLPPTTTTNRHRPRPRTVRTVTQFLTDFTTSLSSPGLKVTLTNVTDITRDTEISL
Described as above.
From the text: as §5, §6

Assay [16] has as its target T10, recombinant monovalent rabbit TREM1-ECD (rabbit).
T10 construct: extracellular domain
The description is as above.
From the text: as §5, §6

The target of assay [17] is T11, recombinant monovalent dog TREM1-ECD (dog (Canis familiaris)).
T11 construct: whole entry named
T11 chain: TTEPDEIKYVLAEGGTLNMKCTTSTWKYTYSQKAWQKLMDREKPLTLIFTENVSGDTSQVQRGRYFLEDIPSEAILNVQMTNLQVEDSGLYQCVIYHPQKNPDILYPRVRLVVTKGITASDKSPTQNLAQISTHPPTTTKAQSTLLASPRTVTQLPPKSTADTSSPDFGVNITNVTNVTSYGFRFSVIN
The assay is described as above.
From the text: as §5, §6

Assay [18] concerns the target T12, recombinant monovalent mouse TREM1-ECD (mouse, UniProt Q9JKE2 21-202).
T12 construct: whole entry named
T12 sequence: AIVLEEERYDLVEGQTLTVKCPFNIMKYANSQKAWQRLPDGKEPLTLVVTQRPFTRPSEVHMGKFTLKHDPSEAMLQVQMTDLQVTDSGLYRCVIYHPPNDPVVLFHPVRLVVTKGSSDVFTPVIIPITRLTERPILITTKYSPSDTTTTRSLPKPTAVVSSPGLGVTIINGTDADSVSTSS
The assay is described as above.
From the text: as §5, §6

Data on one molecule can be found in patent publication US20260242465A1 (CELSIUS THERAPEUTICS, published 2026).

T3 sequence (P08637 17-208 F176V): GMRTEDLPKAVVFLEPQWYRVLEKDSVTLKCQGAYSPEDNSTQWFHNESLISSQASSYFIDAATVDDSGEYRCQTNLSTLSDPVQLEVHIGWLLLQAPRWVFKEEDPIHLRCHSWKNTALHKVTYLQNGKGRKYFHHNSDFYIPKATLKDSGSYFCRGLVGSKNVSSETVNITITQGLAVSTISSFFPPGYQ
T1 sequence (Q9NP99 21-205): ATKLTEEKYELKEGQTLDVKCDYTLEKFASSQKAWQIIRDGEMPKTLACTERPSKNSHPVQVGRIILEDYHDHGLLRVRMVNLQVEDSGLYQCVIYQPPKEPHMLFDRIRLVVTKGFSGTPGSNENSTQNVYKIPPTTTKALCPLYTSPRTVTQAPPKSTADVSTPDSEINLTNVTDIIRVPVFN
T5 sequence (P02745 23-245 limits assumed, chain 1 of 3): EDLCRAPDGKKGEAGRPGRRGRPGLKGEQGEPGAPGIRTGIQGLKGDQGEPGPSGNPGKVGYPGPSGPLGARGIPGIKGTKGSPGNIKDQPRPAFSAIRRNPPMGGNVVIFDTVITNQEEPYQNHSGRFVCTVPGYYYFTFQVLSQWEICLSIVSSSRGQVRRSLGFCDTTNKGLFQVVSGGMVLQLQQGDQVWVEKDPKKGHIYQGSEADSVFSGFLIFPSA
T5 sequence (P02746 28-253 limits assumed, chain 2 of 3): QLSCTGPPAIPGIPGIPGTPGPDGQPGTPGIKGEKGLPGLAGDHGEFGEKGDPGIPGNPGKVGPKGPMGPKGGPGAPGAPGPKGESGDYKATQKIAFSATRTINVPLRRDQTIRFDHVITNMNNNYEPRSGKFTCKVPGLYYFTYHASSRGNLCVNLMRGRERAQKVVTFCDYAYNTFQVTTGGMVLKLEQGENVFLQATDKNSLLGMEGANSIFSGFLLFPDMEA
T5 sequence (P02747 29-245 limits assumed, chain 3 of 3): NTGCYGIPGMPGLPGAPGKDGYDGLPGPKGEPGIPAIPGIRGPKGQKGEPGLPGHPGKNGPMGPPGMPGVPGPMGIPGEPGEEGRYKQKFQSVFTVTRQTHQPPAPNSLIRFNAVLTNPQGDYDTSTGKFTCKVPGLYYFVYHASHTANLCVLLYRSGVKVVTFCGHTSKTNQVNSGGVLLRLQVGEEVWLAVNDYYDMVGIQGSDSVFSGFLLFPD

B1: anti-TREM1 antibody agent clone A (antibody, human IgG1, kappa)
heavy: EVQLVESGGVLVQPGGSLRLSCAASGITFSNSWMSWVRQAPGKGLEWVANIKQDGSEKYYVDSVKGRFTISRDNAKESLFLQMNSLRAEDTAVYYCARGGISTFDIWGQGTMVTVSSASTKGPSVFPLAPSSKSTSGGTAALGCLVKDYFPEPVTVSWNSGALTSGVHTFPAVLQSSGLYSLSSVVTVPSSSLGTQTYICNVNHKPSNTKVDKKVEPKSCDKTHTCPPCPAPPVAGPSVFLFPPKPKDTLMISRTPEVTCVVVDVSHEDPEVKFNWYVDGVEVHNAKTKPREEQYNSTYRVVSVLTVLHQDWLNGKEYKCKVSNKALPAPIEKTISKAKGQPREPQVYTLPPSRDELTKNQVSLTCLVKGFYPSDIAVEWESNGQPENNYKTTPPVLDSDGSFFLYSKLTVDKSRWQQGNVFSCSVMHEALHNHYTQKSLSLSPGK
light: not shown
notes: heavy chain carries the IgG1 constant region with PVAdelG, light chain is kappa; also called anti-TREM1 clone A; Anti-TREM1 Antibody Clone A
For the molecule B1, the “IC50 (read off the curve)” value in the assay with recombinant hTREM1-chFc1 [1] was roughly 0.005 µM. Also, the binding result is given as “no binding (tested: 5 µg/mL)” in [2], “no binding” with purified human C1q, “binds” in assay [5] and “no binding (tested: 3 ug/mL)” in [11]. Further, the “Ratio (against Trastuzumab; not defined)” value was 0.05 with hFcγRIIIA176V [3], 0.33 with hFcγRIIA167R [4], 0.05 with hFcγRIIIA176V [12] and 0.33 in the assay with hFcγRIIA167R [13]. The Kd stood at 6.66 µM with hFcγRIIIA176V [6]; 28.4 µM with hFcγRIIA167R [7]; 6.49 µM with hFcγRIIIA176V [8]; 28.3 µM in the assay with hFcγRIIA167R [9]; 0.0019 µM in [14]. Moreover, in the assay with recombinant hTREM1-chFc1 [10], the half-inhibitory concentration (IC50) was found to be 0.0045 µM. The “Maximum BLI response” value in [14] was found to be 0.343 nm; in [15] it was 0.013 nm; in [16] it was 0.005 nm; in [17], 0.006 nm; in [18] it was 0.005 nm.

As usually defined, the Kd is the constant that tells how readily two partners part at equilibrium. The term IC50 denotes the midpoint of a concentration-inhibition curve.
